# Measurements: patent US20250101091A1
# Columns and labels:
# [1] = target: Cleaved human epiregulin (human) (UniProt O14944); experiment: cell-based or functional assay
# [2] = target: Cleaved rat epiregulin (rat) (UniProt Q9Z0L5); experiment: cell-based or functional assay
# [3] = target: Cleaved rabbit epiregulin (rabbit); experiment: cell-based or functional assay
# [4] = target: Cleaved cynomolgus monkey epiregulin (cynomolgus monkey); experiment: cell-based or functional assay
# [5] = target: Cleaved human epiregulin (human) (UniProt O14944); experiment: ELISA: biotinylated ligand (20 nM) captured on neutravidin plate, antibody titrated 1:3, anti-human kappa-AP detection, OD405 [panel B]
# TGFα (human) = TGFα (human) (UniProt P01135); experiment: as above
substance,measurement,setting,value
LY3016859 (antibody),"IC50, neutralization of epiregulin induced luciferase reporter activity in C166-AP1-Luciferase cells",[1],25.9 nM
same,"IC50, neutralization of human epiregulin induced phospho-ERK induction in TGW cells",[1],14.6 nM
same,"IC50, neutralization of epiregulin induced luciferase reporter activity in C166-AP1-Luciferase cells",[2],720 nM
same,"IC50, neutralization of epiregulin induced luciferase reporter activity in C166-AP1-Luciferase cells",[3],11 nM
same,"IC50, neutralization of epiregulin induced luciferase reporter activity in C166-AP1-Luciferase cells",[4],8.6 nM
same,EC50 (read off the curve),[5],0.03 µg/mL
same,EC50 (read off the curve),TGFα (human),0.02 µg/mL
